Reference: patent publication US20070256687A1, “Enhanced Medical Product” (priority 2004, published 2007)

Experiment: Emitted dose of volumetrically dosed API/excipient mixtures delivered by a proprietary DPI
Type: physicochemical
Source text: In the course of developing methods and products according to the present invention different APIs were mixed with excipients in different ratios. The objectives were to find inter alia suitable formulations and methods of filling doses, but also to optimize inhaler techniques and interaction between inhaler and dose container. Table 1 below discloses some examples of volumetrically dosed mixtures API/excipient and the resulting emitted dose when delivered by a proprietary DPI. […] The objective was to find suitable excipients and to see how different mixing ratios affected the emitted dose. The mixtures were produced under laboratory conditions in small quantities and remained quasi-stable under the run of tests. The emitted dose as percentage of total recovered dose was measured and the results were used in the development of the current invention.

[1] = excipient Mannitole, ratio API/excipient 50/50, proprietary DPI
[2] = excipient Respitose®, ratio API/excipient 20/80, proprietary DPI

In the case of insulin [Micronized insulin], the “Emitted Dose in % of recovered dose” value [1] is reported as 83 % of recovered dose, the “Retention in % of recovered dose” value [1] is reported as 17 % of recovered dose and the “Emitted Dose in % of recovered dose” value [2] is reported as 93 % of recovered dose. For the same substance, the “Retention in % of recovered dose” value [2] was 7 % of recovered dose.
